Test [1] has as its target T1, actin (UniProt P68135 1-377). The test is described as follows: ITC; second site (KD2). Background: Isothermal titration calorimetry measures the heat released or taken up as one component is titrated into another.
Test [2] has as its target T1, actin. The test is described as follows: ITC; first site (KD1).
Test [3] has as its target T1, actin. The test is described as follows: ITC.

B1: Lmod2_(ABS2) (domain or fragment)
chain: NGRNTESPAAIHPCGNPTVIEDALDKIKSNDPDTTEVNLNNIENITTQTLTRFAEALKDNTVVKTFSLANTHADDSAAMAIAEMLKVNEHITNVNVESNFITGKGILAIMRALQHNTVLTELRFHNQRHIMGSQVEMEIVKLLKENTTLLRLGYHFELPGPRMSMTSILTRNMDKQRQKRLQEQKQQE
Take B1: the Kd – broadly, the concentration at which binding is half-saturated – in test [1] is 1700 nM.

B2: TL2_(ABS2) (domain or fragment)
chain: VIKPTQYKPVPDEEPNSTDVEETLERIKNNDPKLEEVNLNNIRNIPIPTLKAYAEALKENSYVKKFSLANTHADDSAAMAIAEMLKVNEHITNVNVESNFITGKGILAIMRALQHNTVLTELRFHNQRHIMGSQVEMEIVKLLKENTTLLRLGYHFELPGPRMSMTSILTRNMDKQRQKRLQEQKQQE
Turning to B2, the Kd was 600 nM in test [1] and 154 nM in test [2].

B3: Tmod1_(ABS1) (domain or fragment)
chain: MSYRRELEKYRDLDEDEILGALTEEELRTLENELDELDPDNALLPAGLRQKDQTTKAPTGPFKREELLDHLEKQAKEFKDREDLVPYTGEKRGKVWVPKQKPLDPVLESVTLEPELEEALANASDAELCDIAAILGMHTLMSNQQYYQALSSSSIMNKEGLNSVIKPTQYKPVPDEEPNSTDVEETLERIKNNDPKLEEVNLNNIRNIPIPTLKAYAEALKENSYVKKFSIVGTRSNDPVAYALAEMLKENKVLKTLNVESNFISGAGILRLVEALPYNTSLVEMKIDNQSQPLGNKVEMEIVSMLEKNATLLKFGYHFTQQGPRLRASNAMMNNNDLVRKRRLADLTGPIIPKCRSGV
B3 displayed a dissociation constant (Kd) in test [3] of 15000 nM.

B4: TL1_(ABS2) (domain or fragment)
chain: VIKPTQYKPVPDEEPNSTDVEETLERIKNNDPKLEEVNLNNIRNIPIPTLKAYAEALKENSYVKKFALANTRADDHVAFAIAIMLKANKTITSLNLDSNHITGKGILAIFRALLQNNTLTELRFHNQRHICGGKTEMEIAKLLKENTTLLKLGYHFELAGPRMTVTNLLSRNMDKQRQKRLQEQRQAQ
On to B4, for which the Kd in test [1] is 130 nM.

The record behind these values is paper PMC4571291 (2015).
